The results in this text go back to US20180185504A1 (Regeneron, published 2018).

Positions count from the first letter of the chain named. Names and notes keep the numbering of the source.

The target of assay [1] is T1, human PRLR on cells (endogenous on T47D, T47D#11, MCF7); introduced in HEK293/hPRLR/STAT5-Luc, 293/hPRLR, … (human, UniProt P16471 25-622).
T1 construct: no tag is stated for these lines; also called prolactin receptor
T1 sequence: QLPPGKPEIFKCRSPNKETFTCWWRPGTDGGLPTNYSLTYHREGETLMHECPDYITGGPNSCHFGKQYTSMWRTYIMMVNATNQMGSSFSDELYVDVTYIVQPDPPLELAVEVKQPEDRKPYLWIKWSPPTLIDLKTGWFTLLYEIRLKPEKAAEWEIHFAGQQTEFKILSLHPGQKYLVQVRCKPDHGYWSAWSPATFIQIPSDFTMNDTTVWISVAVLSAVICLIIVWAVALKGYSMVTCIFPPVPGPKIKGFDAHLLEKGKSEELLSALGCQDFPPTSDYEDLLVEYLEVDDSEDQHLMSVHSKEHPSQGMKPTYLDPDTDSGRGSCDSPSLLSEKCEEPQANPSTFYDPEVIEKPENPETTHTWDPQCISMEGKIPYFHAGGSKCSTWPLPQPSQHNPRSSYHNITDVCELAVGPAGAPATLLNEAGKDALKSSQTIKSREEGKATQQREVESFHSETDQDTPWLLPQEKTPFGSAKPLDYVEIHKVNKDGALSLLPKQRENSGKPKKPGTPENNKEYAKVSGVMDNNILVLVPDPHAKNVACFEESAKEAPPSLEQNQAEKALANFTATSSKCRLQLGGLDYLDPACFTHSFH
The assay can be described thus: imaging of alexa488 intensity on T47D cells. The method, then: Briefly, 20,000 T47D cells were seeded in collagen coated 96 well plates. […] Cells were then incubated with alexa488 conjugated anti-hFc Fab secondary antibodies for 30 minutes on ice followed by two additional PBS washes. Antibodies were allowed to internalize for 1 h at 37° C. in internalization buffer (PBS+2% FBS) or remained at 4° C. Cells were fixed in 4% formaldehyde, nuclei were stained with DRAQ5 (Cell signaling), and images were acquired on the ImageXpress micro XL (Molecular Devices). Whole cell alexa488 intensity at 37° C. (Binding) and the alexa488 intensity in the intracellular vesicles at 37° C. (Internalization) were determined via Columbus image analysis software (PerkinElmer).

The target in assay [2] is T2, monkey macaca fascicularis PRLR construct with an HA tag on HEK293/mfPRLR cells (macaca fascicularis, UniProt A0A2K5WXK1 25-619).
T2 construct: stably transfected into HEK293
T2 sequence: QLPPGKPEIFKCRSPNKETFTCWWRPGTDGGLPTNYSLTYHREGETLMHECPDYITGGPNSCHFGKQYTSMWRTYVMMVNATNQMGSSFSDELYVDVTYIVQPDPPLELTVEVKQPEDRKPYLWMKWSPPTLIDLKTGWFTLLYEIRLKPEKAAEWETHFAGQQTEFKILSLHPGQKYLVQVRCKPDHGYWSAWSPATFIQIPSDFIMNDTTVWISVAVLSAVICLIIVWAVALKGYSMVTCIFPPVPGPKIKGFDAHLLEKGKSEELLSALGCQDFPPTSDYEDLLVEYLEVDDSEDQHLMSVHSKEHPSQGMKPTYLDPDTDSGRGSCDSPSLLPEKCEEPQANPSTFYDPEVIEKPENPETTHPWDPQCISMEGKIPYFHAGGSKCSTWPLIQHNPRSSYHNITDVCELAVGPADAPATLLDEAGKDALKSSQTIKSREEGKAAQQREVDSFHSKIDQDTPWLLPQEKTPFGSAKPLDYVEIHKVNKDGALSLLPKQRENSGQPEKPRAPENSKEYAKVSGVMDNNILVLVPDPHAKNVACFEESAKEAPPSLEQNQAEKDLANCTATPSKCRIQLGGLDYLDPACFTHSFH
The assay can be described thus: FACS on HEK293/mfPRLR cells.

The target in assay [3] is T1, human PRLR on cells (endogenous on …). In words: cell-based or functional assay.
Assay [4] has the same target. In words: FACS on T47D cells.
Assay [5] addresses T3, human PRLR construct with an HA tag on HEK293/hPRLR cells (human, UniProt P16471 25-622).
T3 sequence: T1 sequence
In words: FACS on HEK293/hPRLR cells.

In assay [6] the target is T1, human PRLR on cells (endogenous on …). In words: cell-based or functional assay. The source holds these as a separate data set.
Assay [7] concerns the target T4, mfPRLR.mmh (soluble monomeric macaca fascicularis PRLR) (macaca fascicularis).
T4 construct: soluble monomeric PRLR protein; also called macaca fascicularis (mf) PRLR.mmh; monkey PRLR
T4 chain: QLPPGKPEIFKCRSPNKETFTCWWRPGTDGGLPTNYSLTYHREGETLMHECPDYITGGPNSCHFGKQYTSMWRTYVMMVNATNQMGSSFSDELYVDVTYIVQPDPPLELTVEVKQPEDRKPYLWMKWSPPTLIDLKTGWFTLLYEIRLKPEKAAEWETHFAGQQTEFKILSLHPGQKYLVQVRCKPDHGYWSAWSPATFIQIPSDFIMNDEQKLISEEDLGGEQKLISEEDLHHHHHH
The assay can be described thus: SPR (Biacore), antibody capture, 37 C. How it is done: (§1) Measurements were conducted on a T200 Biacore instrument. Kinetic association (kₐ) and dissociation (kd) rate constants were determined by processing and fitting the data to a 1:1 binding model using Scrubber 2.0 curve fitting software.
A general note: SPR reads the build-up and loss of mass on a sensor chip optically.

Assay [8] has as its target T5, hPRLR.mFc (soluble dimeric human PRLR) (human).
T5 construct: dimeric PRLR construct
T5 chain: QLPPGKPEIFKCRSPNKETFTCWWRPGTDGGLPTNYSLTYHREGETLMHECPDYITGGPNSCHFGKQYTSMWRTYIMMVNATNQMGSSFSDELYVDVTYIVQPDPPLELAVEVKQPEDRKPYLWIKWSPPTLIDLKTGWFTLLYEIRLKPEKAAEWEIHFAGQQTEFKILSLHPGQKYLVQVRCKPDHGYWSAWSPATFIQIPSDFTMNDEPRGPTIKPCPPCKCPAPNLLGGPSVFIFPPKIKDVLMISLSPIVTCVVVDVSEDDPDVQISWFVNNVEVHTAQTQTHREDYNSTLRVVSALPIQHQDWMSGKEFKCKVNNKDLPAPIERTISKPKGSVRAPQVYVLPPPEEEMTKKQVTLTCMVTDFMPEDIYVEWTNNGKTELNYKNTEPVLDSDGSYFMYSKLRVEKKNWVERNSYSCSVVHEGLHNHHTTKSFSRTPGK
The assay can be described thus: SPR (Biacore), antibody capture, 37 C. How it is done: as §1

Assay [9] addresses T6, hPRLR.mmh (soluble monomeric human PRLR) (human).
T6 construct: soluble monomeric PRLR protein
T6 chain: T4 chain with V76I, T110A, M125I, T158I, I207T
In words: SPR (Biacore), antibody capture, 37 C. How it is done:
as §1

The target of assay [10] is T7, mouse PRLR with an HA tag on HEK293 cells (mouse, UniProt Q08501 20-608).
T7 construct: whole, on cells; also called HEK293/mPRLR; rodent PRLR; not shown: HA tag
T7 sequence (looked up): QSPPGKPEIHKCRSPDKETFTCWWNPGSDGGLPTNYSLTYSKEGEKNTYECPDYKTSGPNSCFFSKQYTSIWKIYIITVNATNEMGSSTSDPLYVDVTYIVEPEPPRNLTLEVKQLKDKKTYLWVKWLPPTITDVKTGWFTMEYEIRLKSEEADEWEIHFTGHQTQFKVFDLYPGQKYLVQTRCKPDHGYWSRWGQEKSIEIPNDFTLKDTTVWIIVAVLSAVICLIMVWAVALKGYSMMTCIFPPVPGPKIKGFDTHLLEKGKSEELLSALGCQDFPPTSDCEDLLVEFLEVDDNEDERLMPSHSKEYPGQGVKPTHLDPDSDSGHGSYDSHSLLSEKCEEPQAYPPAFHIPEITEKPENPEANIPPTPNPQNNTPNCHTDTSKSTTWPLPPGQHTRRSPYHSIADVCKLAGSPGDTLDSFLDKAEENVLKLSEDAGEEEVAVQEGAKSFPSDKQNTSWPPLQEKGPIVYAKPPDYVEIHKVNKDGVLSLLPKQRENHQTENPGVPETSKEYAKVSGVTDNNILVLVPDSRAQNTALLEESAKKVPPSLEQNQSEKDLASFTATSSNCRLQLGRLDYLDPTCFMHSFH
In words: FACS on HEK293/mPRLR cells.

B1: H1H6801P (antibody, human IgG1, V domains shown)
VH: QVQLQQSGPGLVKPSQTLSLTCVISGDSVSSNTAWNWVRQSPSRGLEWLGRTYYRSKWYNDYAVSVKSRITINPDTSKNQFSLLMNSVTPEDTAVYYCARVVRGLNYFDYWGQGTLVTVSS
VL: DIVMTQSPDSLAVSLGERATINCKSSQSVLYNSNNKNYLAWYQQKPGQPPKLLIYWSSSRESGVPDRFSGSGSGTDFTLTISGLQAEDVAIYYCQQYSTIPYTFGQGTKLEIK
notes: human IgG1 Fc (H1H)
By Kd is commonly meant the equilibrium constant for the complex coming apart. One may read the koff as the first-order rate constant of dissociation. One may read the kon as a measure of how fast the partners come together. Regarding B1, in assay [1], the “% Total Binding relative to Control I” value stood at 156%. Also, the “FACS Cell Binding (Fold Above Background)” value in assay [2] was found to be 88 fold. In addition, in assay [3], the “IC50 of Blocking 5 nM PRL [M] (STAT5-Luc reporter, HEK293/hPRLR/STAT5-Luc cells)” value was 1.4e-10 M and the “Percent Blocking at 100 nM Antibody (STAT5-Luc reporter)” value stood at 100%. Moreover, the “FACS Cell Binding (Fold Above Background)” value in assay [4] is 45 fold. The “FACS Cell Binding (Fold Above Background)” value in assay [5] is 47 fold. Also, the “% Internalization relative to Control I (T47D cells, imaging)” value in assay [6] was 149%. In addition, in assay [7], the Kd is 10.8 nM, the “T 1/2” value came out at 1 min, the koff was 0.00771 s⁻¹ and the kon amounted to 711000 M⁻¹ s⁻¹. In assay [8], binding was characterised by a dissociation constant (Kd) of 0.279 nM, the “T 1/2” value is 52 min, the koff came out at 0.000221 s⁻¹ and the kon was 793000 M⁻¹ s⁻¹. Moreover, in assay [9], the affinity, expressed as Kd, was 4.63 nM; the “T 1/2” value was found to be 3 min; the koff came out at 0.00441 s⁻¹; the kon was 951000 M⁻¹ s⁻¹.

B2: H1H6795P (antibody, human IgG1, V domains shown)
VH: QVQLVQSGAEVKKPGASVKVSCKASGYTFGTSGITWVRQAPGQGLEWMGWSSAYNGKTDYAQKFQDRVTMTTDTSTTTGYMEMRSLTSDDTAVYYCTTVVRRPFDFWGQGTLVTVSS
VL: DIQMTQSPSSLSASVGDRVTITCRASQDINNFLAWFQQKPGKAPKSLIYAASSLQSGVPSKFSGGGSGTDFALTISSLQPEDFATYYCQQYSSYPITFGQGTRLEIK
B2: the binding result in assay [10] is reported as “no binding”.

B3: H1H6797P (antibody, human IgG1, V domains shown)
VH: EVQLVESGGGLVQPGGSLRLSCIVSGFTFSGSWMSWVRQLPGKGLEWVANIKEDGSDSYYVDSVEGRFTISRDNAKSSLYLQMNSLRVDDTAVYFCARARTVPLHYWGQGTLVTVSS
VL: DIQMTQSPSTLSASVGDRVTITCRASQSINIWLAWYQQKPGKAPKLLIYRASYLESGVPSSFAGGGSGTEFTLTISSLQPDDFGTYYCQHYNSYPFTFGQGTKLEIK
Take B3: the binding result in [10] is given as “no binding”.

B4: H1H6803P (antibody, human IgG1, V domains shown)
VH: EVQLVESGGGVVRPGGSLRLSCAASGFKFDDYGMTWVRHVPGKGLEWVSGINWNGGRTGYTDSVKGRFTISRDNAKNSLYLQMNSLRAEDTALYHCAGARRDAFDIWGQGTMVTVSS
VL: DIQMTQSPSSLSASIGDRVTITCRASQNIIKYLNWYQQNAGKAPKLLIYTASSLQSGVPSRFSGSGSGTDFTLTISSLQPEDFATYYCQQSSSSPYTFGQGTKLEIK
On to B4, for which, in assay [10], the binding result is “no binding”.

B5: H1H6800P (antibody, human IgG1, V domains shown)
VH: EVQLVESGGGLVQPGRSLRLSCAASGFTFDGYAMHWVRQGPGKGLEWVSGISWYSDTLGYADSVKGRFTISRDNAKNSLYLQMNSLRTEDTAFYYCAKISSSGWAFDYWGQGTLVTVSS
VL: EIVLTQSPGTLSLSPGERATLSCRASHSVSSAYLAWYQQKPGQTPRLLIYGTSSRATGIPDRFSGSGSGTDFTLTISRLEPEDFAVYYCQQYGSSPLFTFGPGTKVDIK
On to B5, for which the binding result in assay [10] is on record as “no binding”.

B6: H1H6793P (antibody, human IgG1, V domains shown)
VH: EVQLVESGGGLVQPGGSLRLSCAASGFSFSIYAMSWFRQAPGKGLEWVSAINGRGDGTHYADSVKGRFTISRDNSKTTLYLQMSSLRAEDTAVYYCAKPVMSTNGFDIWGQGTMVTVSS
VL: DIQMTQSPSTLSASVGDRVTITCRASQSISSWLAWYQLKPGKAPKLLIYKASNLESGVPSRFSGSGSGTEFTLTISSLQPDDFATYYCQQYNIYWTFGQGTKVEIK
With B6, the binding result in assay [10] was “no binding”.
